Laboratory results: patent US20090166224A1 (published 2009)

Key:
Assay in all cases: human serum on Con A/WGA/Jacalin column, lectin-specific displacer fraction, LC-MS/MS; grade = SEQUEST rank group (+ = ranks 1-5, ++++ = 16-20)
Alpha-1-antitrypsin = biological target: T1, Alpha-1-antitrypsin (human, UniProt P01009 25-418)
T1 construct: also called A1AT; α1-antitrypsin

[1] = biological target: T2, HAPTOGLOBIN-RELATED PROTEIN (human, UniProt P00739 1-348, limits assumed)
T2 construct: from human serum; also called HPTR
T2 sequence (looked up): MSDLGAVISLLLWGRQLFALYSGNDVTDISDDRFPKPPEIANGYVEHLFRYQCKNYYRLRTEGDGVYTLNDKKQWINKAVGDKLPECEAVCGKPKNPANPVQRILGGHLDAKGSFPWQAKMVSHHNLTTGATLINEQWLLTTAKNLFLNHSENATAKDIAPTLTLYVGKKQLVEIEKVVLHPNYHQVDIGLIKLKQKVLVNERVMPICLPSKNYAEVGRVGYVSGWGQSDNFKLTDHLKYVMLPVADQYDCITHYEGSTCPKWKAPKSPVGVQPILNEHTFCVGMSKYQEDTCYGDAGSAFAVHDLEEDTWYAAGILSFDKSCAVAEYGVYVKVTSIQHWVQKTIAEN

APOLIPOPROTEIN C-III = biological target: T3, APOLIPOPROTEIN C-III (human, UniProt P02656 21-99)
T3 construct: from human serum; also called APC3

[2] = biological target: T4, INTER-ALPHA-TRYPSIN INHIBITOR HEAVY CHAIN H1 (human, UniProt P19827 35-672)
T4 construct: from human serum; also called ITH1
T4 sequence (looked up): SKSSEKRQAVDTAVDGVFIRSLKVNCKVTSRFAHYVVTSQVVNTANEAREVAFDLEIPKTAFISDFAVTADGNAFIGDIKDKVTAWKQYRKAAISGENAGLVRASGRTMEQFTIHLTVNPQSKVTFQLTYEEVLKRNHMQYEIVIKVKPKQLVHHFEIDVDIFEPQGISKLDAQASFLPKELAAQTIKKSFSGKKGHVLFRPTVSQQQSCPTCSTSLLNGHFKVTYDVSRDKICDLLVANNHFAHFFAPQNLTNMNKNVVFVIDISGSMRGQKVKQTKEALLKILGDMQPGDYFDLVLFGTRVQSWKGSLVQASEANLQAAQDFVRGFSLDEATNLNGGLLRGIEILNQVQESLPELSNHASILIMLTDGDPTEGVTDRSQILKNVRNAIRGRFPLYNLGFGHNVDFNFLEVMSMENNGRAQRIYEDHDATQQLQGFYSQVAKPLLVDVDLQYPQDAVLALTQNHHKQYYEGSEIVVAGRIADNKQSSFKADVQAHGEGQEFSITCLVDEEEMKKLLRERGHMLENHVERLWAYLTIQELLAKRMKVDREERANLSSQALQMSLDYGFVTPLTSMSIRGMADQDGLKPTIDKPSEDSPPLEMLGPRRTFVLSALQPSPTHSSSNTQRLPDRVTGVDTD

[3] = biological target: T5, IG GAMMA-3 CHAIN C REGION (human, UniProt P01860-1 1-377)
T5 construct: domain: C region; Polyclonal serum IgG3, identified through its constant region; variable regions and light chains not defined; also called GC3

[4] = biological target: T6, INTER-ALPHA-TRYPSIN INHIBITOR HEAVY CHAIN H2 (human, UniProt P19823 55-702)
T6 construct: from human serum; also called ITH2
T6 sequence (looked up): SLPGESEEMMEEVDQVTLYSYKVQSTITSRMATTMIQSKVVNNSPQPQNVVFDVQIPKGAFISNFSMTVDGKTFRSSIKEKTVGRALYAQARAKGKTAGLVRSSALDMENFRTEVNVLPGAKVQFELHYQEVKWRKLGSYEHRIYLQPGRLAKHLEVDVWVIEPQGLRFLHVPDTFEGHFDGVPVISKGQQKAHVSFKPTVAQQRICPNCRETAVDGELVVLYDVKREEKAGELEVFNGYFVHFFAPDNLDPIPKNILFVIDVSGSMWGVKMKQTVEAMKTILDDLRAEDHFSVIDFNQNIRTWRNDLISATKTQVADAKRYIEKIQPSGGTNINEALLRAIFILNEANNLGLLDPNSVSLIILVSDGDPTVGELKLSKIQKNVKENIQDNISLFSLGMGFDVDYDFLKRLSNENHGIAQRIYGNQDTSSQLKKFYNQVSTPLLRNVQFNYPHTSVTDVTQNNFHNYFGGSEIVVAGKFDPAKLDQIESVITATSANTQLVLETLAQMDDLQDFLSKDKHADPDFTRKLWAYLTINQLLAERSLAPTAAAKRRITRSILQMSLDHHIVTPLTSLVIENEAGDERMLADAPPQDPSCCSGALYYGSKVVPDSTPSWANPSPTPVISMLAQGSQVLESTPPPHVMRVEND

APOLIPOPROTEIN E = biological target: T7, APOLIPOPROTEIN E (human, UniProt P02649 19-317)
T7 construct: from human serum; also called APE
T7 sequence (P02649 19-317 limits assumed): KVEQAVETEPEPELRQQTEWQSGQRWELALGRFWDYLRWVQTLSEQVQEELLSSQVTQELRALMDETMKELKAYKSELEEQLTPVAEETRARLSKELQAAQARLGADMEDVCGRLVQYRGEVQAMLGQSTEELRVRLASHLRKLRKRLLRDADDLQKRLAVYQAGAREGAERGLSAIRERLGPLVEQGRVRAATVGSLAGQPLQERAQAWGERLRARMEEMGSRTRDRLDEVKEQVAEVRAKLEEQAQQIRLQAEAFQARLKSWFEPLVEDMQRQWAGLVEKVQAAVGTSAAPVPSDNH

T1 sequence (P01009 25-418 limits assumed): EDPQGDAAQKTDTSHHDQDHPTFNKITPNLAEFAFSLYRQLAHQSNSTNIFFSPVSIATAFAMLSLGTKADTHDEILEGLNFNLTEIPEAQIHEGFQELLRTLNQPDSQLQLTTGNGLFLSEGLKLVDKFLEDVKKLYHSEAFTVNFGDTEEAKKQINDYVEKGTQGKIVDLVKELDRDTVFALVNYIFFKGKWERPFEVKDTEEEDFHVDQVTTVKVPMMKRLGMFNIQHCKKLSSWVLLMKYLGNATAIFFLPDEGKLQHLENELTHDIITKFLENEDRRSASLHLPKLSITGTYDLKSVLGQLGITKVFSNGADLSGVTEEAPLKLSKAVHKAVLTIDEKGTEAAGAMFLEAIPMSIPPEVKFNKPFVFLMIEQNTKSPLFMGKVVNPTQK
T3 sequence (P02656 21-99 limits assumed): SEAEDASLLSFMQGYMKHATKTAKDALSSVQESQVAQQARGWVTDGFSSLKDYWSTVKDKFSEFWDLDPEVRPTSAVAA
T5 sequence (P01860 other isoform, or with tags, fused parts or gaps limits assumed): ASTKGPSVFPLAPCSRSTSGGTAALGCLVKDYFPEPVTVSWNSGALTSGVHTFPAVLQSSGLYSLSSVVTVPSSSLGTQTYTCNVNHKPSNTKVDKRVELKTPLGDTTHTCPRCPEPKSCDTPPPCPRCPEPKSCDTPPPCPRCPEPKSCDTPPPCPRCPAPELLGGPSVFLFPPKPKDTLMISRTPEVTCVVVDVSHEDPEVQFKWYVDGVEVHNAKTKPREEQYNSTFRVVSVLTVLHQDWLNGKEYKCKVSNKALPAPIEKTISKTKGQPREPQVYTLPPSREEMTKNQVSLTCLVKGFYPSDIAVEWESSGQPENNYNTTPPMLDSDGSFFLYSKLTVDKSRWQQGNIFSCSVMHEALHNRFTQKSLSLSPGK

SEQUEST ranking (relative abundance in the Jacalin displacement fraction) (Alpha-1-antitrypsin): 1 to 5 rank
SEQUEST ranking (relative abundance in the Jacalin displacement fraction) [1]: 6 to 10 rank
SEQUEST ranking (relative abundance in the Jacalin displacement fraction) (APOLIPOPROTEIN C-III): 6 to 10 rank
SEQUEST ranking (relative abundance in the Jacalin displacement fraction) [2]: 6 to 10 rank
SEQUEST ranking (relative abundance in the Jacalin displacement fraction) [3]: 16 to 20 rank
SEQUEST ranking (relative abundance in the Jacalin displacement fraction) [4]: 16 to 20 rank
SEQUEST ranking (relative abundance in the Jacalin displacement fraction) (APOLIPOPROTEIN E): 11 to 15 rank
B1: Jacalin lectin, agarose-bound (other)
chain 1: GKAFDDGAFTGIREINLSYNKETAIGDFQVVYDLNGSPYVGQNHKSFITGFTPVKISLDFPSEYIMEVSGYTGNVSGYVVVRSLTFKTNKKTYGPYGVTSGTPFNLPIENGLIVGFKGSIGYWLDYFSMYLSL
chain 2: NEQSGKSQTVIVGSWGAKVS
modifications: immobilized on agarose
notes: Lectin; released with galactose; Coated on the plate in the lectin ELISA
